Results from PMC5457501 (Nature Communications, 2017).
“And” between values parts separate entries of the source, which are not always exact repeats. Equal entries are not always repeated.

B2: PrimPol RPA-binding domain (PrimPol_(480-560)) (domain or fragment, human, UniProt Q96LW4 480-560, looked up)
chain: TTDEADETRSNETQNPHKPSPSRLSTGASADAVWDNGIDDAYFLEATEDAELAEAAENSLLSYNSEVDEIPDELIIEVLQE
notes: 15N-enriched for one NMR sample; also called PrimPolRBD; RBD; source: E. coli BL21(pLysS), purified (Ni Sepharose, Q Sepharose, Superdex 75)
B5: RPA70N (RPA70 residues 1-120) (domain or fragment, human, UniProt P27694 1-120, looked up)
chain: MVGQLSEGAIAAIMQKGDTNIKPILQVINIRPITTGNSPPRYRLLMSDGLNTLSSFMLATQLNPLVEEEQLSSNCVCQIHRFIVNTLKDGRRVVILMELEVLKSAEAVGVKIGNPVPYNE
notes: RPA70 (replication protein A 70 kDa subunit), human, N-terminal domain, residues 1-120; pET15b construct; 15N-enriched for some NMR samples; also called RPA70_(1-120); RPA70N domain of RPA70; source: E. coli BL21 (DE3), purified (HisTrap, thrombin cleavage, Superdex 75)
B6: RPA70N^E7R (domain or fragment, human, UniProt P27694 1-120, looked up)
chain: MVGQLSRGAIAAIMQKGDTNIKPILQVINIRPITTGNSPPRYRLLMSDGLNTLSSFMLATQLNPLVEEEQLSSNCVCQIHRFIVNTLKDGRRVVILMELEVLKSAEAVGVKIGNPVPYNE
notes: RPA70, human, N-terminal domain, residues 1-120, with E7R (variant optimised for crystallisation of complexes); source: E. coli BL21 (DE3), purified (HisTrap, thrombin cleavage, Superdex 75)

Assays:
Conditions in all cases: both partners purified
[1] = target: B5; assay: ITC; MicroCal VP-ITC; 400 uM PrimPol RBD (WT or variants) injected into 20 uM RPA70N; 20 mM HEPES pH 7.5, 80 mM NaCl, 3 mM beta-mercaptoethanol; single-site model
[2] = target: B6; assay: crystal structure; co-crystals by sitting-drop vapour diffusion at 293 K; RPA70N E7R with PrimPol 514-528 peptide (2.5:1 peptide:protein) or with PrimPol 480-560 (1:1)
[3] = target: B5; assay: NMR titration; 15N-1H HSQC at 25 C; 100 uM 15N-enriched RPA70N or 15N-enriched PrimPol 480-560 alone and with 200 uM unlabelled partner; 20 mM HEPES pH 7.5, 80 mM NaCl, 2 mM DTT
[4] = target: B2; assay: SEC; analytical gel filtration, Superdex S75 10/300 GL, 50 mM Tris-HCl pH 7.5, 100 mM NaCl, 2 mM TCEP; 0.5 ml loaded at 35 uM; binding read from a shift of the peaks
[5] = target: B2; assay: SEC-MALS; Superdex 75 increase 10/300 GL, 20 mM HEPES pH 7.1, 80 mM NaCl, 0.5 mM TCEP; RBD at 185 uM with RPA70N E7R at 0, 1, 2 and 4 x molar ratios

B1: PrimPol RBD RBM-B knockout (480-546 truncation) (domain or fragment, human, UniProt Q96LW4 480-546, looked up)
chain: TTDEADETRSNETQNPHKPSPSRLSTGASADAVWDNGIDDAYFLEATEDAELAEAAENSLLSYNSEV
notes: PrimPol, human, residues 480-546 (RBD without RBM-B); also called PrimPol_(B-KO); RBD_(B-KO); source: E. coli BL21(pLysS), purified (Ni Sepharose, Q Sepharose, gel filtration)
Question: How did the Kd [1] turn out when B1 was run?
Answer: 6.7 ± 1.5 µM

Question: Does B2 bind [2]?
Answer: binds

Question: Does B2 bind [3]?
Answer: binds

B3: PrimPol RBD RBM-A knockout (D514R/D518R/D519R) (domain or fragment, human, UniProt Q96LW4 480-560, looked up)
chain: TTDEADETRSNETQNPHKPSPSRLSTGASADAVWRNGIRRAYFLEATEDAELAEAAENSLLSYNSEVDEIPDELIIEVLQE
notes: PrimPol, human, RBD residues 480-560 with D514R, D518R, D519R; also called PrimPol_(A-KO); RBD_(A-KO); source: E. coli BL21(pLysS), purified (Ni Sepharose, Q Sepharose, gel filtration)
Question: With B3 as the binder, how does the Kd [1] read?
Answer: 7.8 ± 0.6 µM

B4: PrimPol_(514-528) peptide (peptide, UniProt Q96LW4 514-528, looked up)
peptide: DNGIDDAYFLEATED
notes: PrimPol, human, residues 514-528 (RBM-A), 15-mer; also called RBM-A peptide residues (PrimPol_(514-528)); 15-mer PrimPol_(514-528) peptide; source: synthetic peptide (Genscript), used as supplied
Question: Does B4 bind [2]?
Answer: binds

Question: With B5 as the binder, how does the “stoichiometry N” value [4] read?
Answer: 2 RPA70N per PrimPolRBD

Question: With B6 as the binder, how does the “stoichiometry N” value [5] read?
Answer: 1 RPA70N per PrimPolRBD and 2 RPA70N per PrimPolRBD

B7: RBM-A peptide (RBM-A_(510-528)) (peptide, UniProt Q96LW4 510-528, looked up)
peptide: DAVWDNGIDDAYFLEATED
notes: source: synthetic peptide (GenScript), HPLC purified
Question: Does B7 bind [3]?
Answer: binds
